This data set is described as follows: soluble on expression in E. coli; label from the status in PepcDB or PDB records.
In the case of “MGSDKIHHHHHHMTTDLEQQFEFLTEIERLREVERQNLLLDGSRVENSAEHSWHLALYALVFAPYAPSDVSITRVIEMLLLHDIVEIDVGDHPIDEPTDWEAVAQAEDRAQRRIFGLLPEAQGHRLQALWQEFEAAHTADARFAKSLDYCQPIFQTLCAVSPPADHLRVVRENLTTGRATSLRERFPEAYAAACSLIDGQTVSDPDFAARLAFLSEADRLKSVLRASRIASGTRYENSAEHSWHIMLYGWILAPHSLSEVDVSRVLKMLLLHDLVEIDAGDVPIHSNLDAAALRQIEETEKAAAERIFGLLPDAQAKDCLMIWQEFEAAQSADAVFAKSIDRVQPVLLNIATGGGSWVAYDVTLPQLETRVGVKIARGAPKVWDHVRALLLPWFTAQGRL”, the “soluble on expression in E. coli” value is “not soluble”.

Take “MGSDKIHHHHHHMTTLALTGDSILQRRLLSTSDPVIKPLFDLIRGCDAAFTNLEVLPNDYRGDPAFDSGGSHFGAPSWVLDDLVEAGFGMFSTATNHTLDYSISGLEYGLDQLDKRGLCHAGAGRHLEEARRAAYLTTPNAAIGMVACGSTYTKGQEAARQTAAMQGRPGLNPLWPDSTYEVTAEQMAVVKEMAEGLGLEKFRQIRISTGFAFEAPEGIFPFNGMNFRVGEQTRHVRHPNPKDLAAIIRWVEEAKLASDIALVSIHAHEHADEKDQPADFIVEFAHAVIDAGADLVVGHGPHLLRGMEIYKGKPIFYSLGNFIGQNEMVRQLPGESYDRFHVDDRLTPTQLYKQRTLDDQKGFPSDERYWQTVVPICHFEGDGLVDVEIHPVSLGLGEQRHRRGRPRLAHGAEAESILNRFSSLSYEFGSTLEVGDTCANAVL”: the “soluble on expression in E. coli” value is recorded as “not soluble”.

Consider “MGSDKIHHHHHHMTTRVIALDLDGTLLTSKKTILPASLEALARAREAGYQVIVVTGRHHVAIHPFYQALALDTPAICCNGTYLYDYHAKKVLAADPMPVEQAVSLTAMLAKQQIHGLAYVDDAMLYEHPTGHVIRTRNWAQALPEDQRPVFAQVDSLAQAVREVNAVWKFALTDDDIPRLQRFAQQVGETLGLECEWSWHDQVDIARAGNSKGKRLAQWVADQGLSMQDVMAFGDNYNDLSMLEAAGTGVAMGNAVDEVKARANIVIGDNESTSIAEFIYRQLL”, for which the “soluble on expression in E. coli” value is “not soluble”.

“MGSDKIHHHHHHMTTSSVRYPQRVRNELRFRELIVLRVERISAGFQRIVLGGEALDGFISLGFDDHTKVFFPEPGCRFTPPTVTEEGIIWGEGVRPVSRDYTPLYDEARRELALDFFIHDGGVASRWAMEAREGDTLTIGGPRGSLVVPEEYACQVYVCDESGMPALRRRLESLSRLPVRPAVTALVSIQDAAYRDYLAHLTDITVEYVVGGDEQAMQTRLSQLTIPESDYFIWITGEGKTVKRLSQCFEKGFDPHLVRAAAYWHRK”: the “soluble on expression in E. coli” value is “not soluble”.

Regarding “MGSDKIHHHHHHMTVELLNEPLSRYPAFDTADPEELRQALSSVYGAKLVEGPIAADFHARSNFVQLDDIALAFGVGTGSIAVEFPEGECARLQIALSGQFTTRSGGTSTAINARQAGIISPGRNARTEYGQNYSFTLLRVSTSALERKLTTLLGCKPKASLEFEPAANNEAPQVVNLRRMLCFLANQLNCSPLPPVVLAELQEAITLLFLSAFRHNYSRQLERESHGIAPKHVRQVEEYIEANWMRPITIEKLTALTGISSRGIFKAFQRSRGYSPMAFAKRVRLQHAHNLLSDGATPTTVTAAALSCGFSNLGHFARDYRDMFGEKPSETLQRARP”, the “soluble on expression in E. coli” value is listed as “not soluble”.

Consider “MGSDKIHHHHHHMTVVDDEKPAQAASGRFAAGEDPAKRDQILDGAKRAFMKHGFDAASMNDVTREAGVSKGTIYVYFQSKEDLFAALINNQKQKFAASMRDILAEETDLHMALRRYALAFTNYILTSEMIPAMRMLLAVQDRMPHLCQSFMRSGPENVRTVLEDYLEVQVKAGRLDIADTELAARQYIELATGAYFKKRLFGEIEVPPPQAEIDYIIDNALHIFLLAYDRKAENGPEAQRAN”, for which the “soluble on expression in E. coli” value is “not soluble”.

As to “MGSDKIHHHHHHMTWGCHHLIKKVDASFSLGPISFTLEPGTVTALVGDNGSGKSTFFRLWMDLIKANQGTWERKEGWKEDTAYVPQQLIGIEAFTLEELAYLYEGMYVKWDQKTFERLVESFSLPMKKPLHSLSVGMQKKALFSMAIARKPNLFLLDEPFAGVDMDGQEQMKDELIRYLTGHEQATVLFATHSAQEVKELADYLLVLHQGQMLGFYEKDRLLSSWGRFWLEGNASAIKNEENVVSMKIAGTRIEIITSDALRFEEQIAAAALEKVEAQPLELHEIVRLLKKRNVSVS”, the “soluble on expression in E. coli” value is recorded as “not soluble”.

As for “MGSDKIHHHHHHMTYKVLHVGAGGFGERWCDTFLPSNNSDGTIEVVGLVDIDARALEIGRKHLGLKAKQCFTSAAQAFKAVDADFCTIVIPPALHEGIVDLALERGMHILSEKPIAATMEASVRIADKVRVAGRKMAVTMSHRFDQDKSTLRALVSDEALGRVNTVSCRFAGDYRAYDSWGRFRHEMIHPMLIEGAVHHLDIMADLAGAPCTSIYARSWKPEWAEYKGETDVMVLMDFANGAHGVYEGSSAQATGLNDWTFEYVRVEAASGTAILDHREVEVFHRDPKRIYQKNRHGKGQQVSLLGGKKWKNSLLIEQFCHWLDGGPPMATNVEDNLQSVALIFSAIESARLGQPVKVQEFLQSFRKSASIETQ”, the “soluble on expression in E. coli” value is reported as “not soluble”.

For the sequence “MGSDKIHHHHHHMVDTHAHLHFHQFDDDRNAVISSFEENNIEFVVNVGVNLEDSKKSLDLSKTSDRIFCSVGVHPHDAKEVPEDFIEHLEKFAKDEKVVAIGETGLDFFRNISPAEVQKRVFVEQIELAGKLNLPLVVHIRDAYSEAYEILRTESLPEKRGVIHAFSSDYEWAKKFIDLGFLLGIGGPVTYPKNEALREVVKRVGLEYIVLETDCPFLPPQPFRGKRNEPKYLKYVVETISQVLGVPEAKVDEATTENARRIFLEVKE”, the “soluble on expression in E. coli” value was “soluble”.

With “MGSDKIHHHHHHMVIGQKVLLARIPKMGDNYSTYLLDIEGTVCPISFVKETLFPYFTNKVPQLVQQDTRDSPVSNILSQFHIDNKEQLQAHILELVAKDVKDPILKQLQGYVWAHGYESGQIKAPVYADAIDFIKRKKRVFIYSSGSVKAQKLLFGYVQDPNAPAHDSLDLNSYIDGYFDINTSGKKTETQSYANILRDIGAKASEVLFLSDNPLELDAAAGVGIATGLASRPGNAPVPDGQKYQVYKNFETL”, the “soluble on expression in E. coli” value is “soluble”.

Consider “MGSDKIHHHHHHMVILVNPSILESSFIPDRLVARDGEIERIMETVIKPTKNGITTNLILYGDSGTGKTVTMRYLAREIRDPQVVYVNAIAYRYVKNVLIDFLSKFGIIVPERSSYASLFTRIEGLLRNQGKNVILVIDEAANILKGDYDGLYYLFRSKDSFDVNISTIFVVMEDPAILFDAKIRKSYGIFSEIKFRRYTKGEIYQIVMNRAVQSLTGEGYDEDVLDYIAEVSAEYGSARVGIDILAKAAHIAEYRRSPKISFDDVRAARSMISPFVTESKLASMDYEDLMVLLSICRCLSASRFTDVDCISRNLSVISEQYGKKDINLYDRIKRLENNGIISSSIEGQGRGEGVKKVISIYDIPVSVLTEKIENLLSA”, for which the “soluble on expression in E. coli” value was “not soluble”.

On to “MGSDKIHHHHHHMVKTARRRGDDAVRGPGGVLVLGAASWNRMIHVETLPQGASATIFDARETQGAGSTGVGKAMGLAALGYQPTLHCALGRDDHGAQVIAACAGRGISLIVDEHDAATPHHLNIMDQLGGRYSLFLSNGAPDPPINEPRIAEQIAAADTIFLSLCASSKKILHLLEGARAEILLDLHDYDGANPWYEDFIACADVIQLSDVAVADPGAVARRLLSGRAHQVVVTKAGKGAEIVTADTSIDVPPCPADMVDSNGAGDAFSVALWHAQRTGQSGLDAGGFAAAAAACAIESADLFPVNVSAADIAGRVRAHPQDHSTGTASR”, for which the “soluble on expression in E. coli” value is given as “not soluble”.

Take “MGSDKIHHHHHHMVMMSKQLTAQAPVDPIVLGKMGSSYGIRGWLRVFSSTEDAESIFDYQPWFIQKAGQWQQVQLESWKHHNQDMIIKLKGVDDRDAANLLTNCEIVVDSSQLPQLEEGDYYWKDLMGCQVVTTEGYDLGKVVDMMETGSNDVLVIKANLKDAFGIKERLVPFLDGQVIKKVDLTTRSIEVDWDPGF”: the “soluble on expression in E. coli” value is reported as “not soluble”.

Consider “MGSDKIHHHHHHMVMTVGDSRVGKSTVIKLLLEMYQIQGKRLKVYDHDNRDRFLAYKDLVCIEKIDFFNTRTDRIFNDLIVDSLDIILVDMPGQYLDKICQYIIQSELLGALAEYGWSLTFVQPISHRTDCIDYLSQIVQTATNNANYVVVKNYHFAPEFREYEQTMAKNLLMIGGTEIELTALHRNHYQAMEKAGIPYSQVCQDISMILFLRSYIYQWIKKFHDSVMDNDLAVKYLGLD”, for which the “soluble on expression in E. coli” value is “not soluble”.

As to “MGSDKIHHHHHHMVNNMTDLTAQDAAWSTRDHLDDPVIGELRNRFGPDAFTVQATRTGIPVVWVKREQLLEVGDFLKKLPKPYVMLFDLHGMDERLRTHRDGLPAADFSVFYHLISIERNRDIMLKVALSENDLRVPTFTKLFPNANWYERETWEMFGIDIEGHPHLTRIMMPQTWEGHPLRKDYPARATEFDPFELTKAKQDLEMEALTFKPEDWGMKRGTDNEDFMFLNLGPNHPSAHGAFRIILQLDGEEIVDCVPDIGYHHRGAEKMGERQSWHSYIPYTDRIEYLGGCVNEMPYVLAVEKLAGITVPDRVNVIRVMLSELFRINSHLLYISTFIQDVGAMTPVFFAFTDRQKIYDLVEAITGFRMHPAWFRIGGVAHDLPRGWDRLLREFLEWMPKRLDSYEKAALRNTILKGRSQGVAAYGAKEALEWGTTGAGLRATGIDFDVRKWRPYSGYENFDFEVPVGGGVSDCYTRVMLKVEELRQSLRILQQCLDNMPEGPFKADHPLTTPPPKERTLQHIETLITHFLQVSWGPVMPAQESFQMVEATKGINSYYLTSDGSTMSYRTRVRTPSFAHLQQIPSAIRGSLVSDLIVYLGSIDFVMSDVDR”, the “soluble on expression in E. coli” value is “not soluble”.

As to “MGSDKIHHHHHHMVQNTFSDFDVSGFWDDSAYSIEEYVEETPTDALIDSIEQELGYKLPASYIELMKQHNGGTPVNCCFPVTEETSGTEYHVEISGIMGIGRSKTYSLGGSFGSRFMIDEWGYPDTGIYVCTCPSAGHEMILLDYSICGPKGEPQVFYVDQEREYQKTFLAKDFETFIRGLVHADVYDTSAQDLISTLETFRTGNFSEVLQAYIKKDLSVNFDRVLRNLFTELTTEKGYFALHADELSYLSYDIQFYLLSINRKIKSKEDFVKHYLPMVAMSDAGITTGGYANFFEDWFDEKIKSKEITKGLLSGFLFTEIYKQKLFERIKQYDK”, the “soluble on expression in E. coli” value was “not soluble”.

Take “MGSDKIHHHHHHMVRGRKIMSLVTDLPAIFDQFSEARQTGFLTVMDLKERGIPLVGTYCTFMPQEIPMAAGAVVVSLCSTSDETIEEAEKDLPRNLCPLIKSSYGFGKTDKCPYFYFSDLVVGETTCDGKKKMYEYMAEFKPVHVMQLPNSVKDDASRALWKAEMLRLQKTVEERFGHEISEDALRDAIALKNRERRALANFYHLGQLNPPALSGSDILKVVYGATFRFDKEALINELDAMTARVRQQWEEGQRLDPRPRILITGCPIGGAAEKVVRAIEENGGWVVGYENCTGAKATEQCVAETGDVYDALADKYLAIGCSCVSPNDQRLKMLSQMVEEYQVDGVVDVILQACHTYAVESLAIKRHVRQQHNIPYIAIETDYSTSDVGQLSTRVAAFIEML”: the “soluble on expression in E. coli” value is on record as “not soluble”.

For the sequence “MGSDKIHHHHHHMVSIIDFYVLQKRPSNGGGFDIAIGNPPYISAPTQIASPELNEQRQRIVASKKYKSLNEKWDLYVPFMELGMQLLCPNGVFSMIVPYPLTNQKYGKKLRKMIVEEYRLLEIADLNGTKIFENATVSNCIPFIQNSQPEGELRITQIFEDKTIREVLSKSPKALKLDKKNYVWNLTEEERTGNRFANMNVLGDFCYISVGMVVNANEKDAQGAFKKEDLISDTYDAIHCRKYIEAKDIDKFQVKRVRYLEWNTERCPEKLRRPTFRELYDRPKLIMNCLGTINVTIDAEEHFLHNHSIYCAILWKDLKDVSNKSISSSVKKFSKHNREAMESLSEKVDLYYLLGILNSSMADQLLTDQRGGDYHIYPEHIRNLPIPVPQREIQNAIGEIAKQILLIRETNTDYSELEEQLNNLVEALYQ”, the “soluble on expression in E. coli” value was “not soluble”.

Source of the values: the DeepSol protein solubility set.
